According to publication PMC3519786, “Novel Interactions between FOXM1 and CDC25A Regulate the Cell Cycle” (PLoS ONE, 2012):

Molecular target: T1, GAL4-FOXM1 C-terminal fragment (amino acids 330-763) (human, UniProt Q08050-1 330-763)
T1 construct: FOXM1, human, C-terminal fragment, amino acids 330-763; from pCMV-XL5-FOXM1B (Origene); also called C-terminal FOXM1; C-terminus of FOXM1; source: mammalian two-hybrid fusion, U2OS, transfected
T1 sequence (looked up): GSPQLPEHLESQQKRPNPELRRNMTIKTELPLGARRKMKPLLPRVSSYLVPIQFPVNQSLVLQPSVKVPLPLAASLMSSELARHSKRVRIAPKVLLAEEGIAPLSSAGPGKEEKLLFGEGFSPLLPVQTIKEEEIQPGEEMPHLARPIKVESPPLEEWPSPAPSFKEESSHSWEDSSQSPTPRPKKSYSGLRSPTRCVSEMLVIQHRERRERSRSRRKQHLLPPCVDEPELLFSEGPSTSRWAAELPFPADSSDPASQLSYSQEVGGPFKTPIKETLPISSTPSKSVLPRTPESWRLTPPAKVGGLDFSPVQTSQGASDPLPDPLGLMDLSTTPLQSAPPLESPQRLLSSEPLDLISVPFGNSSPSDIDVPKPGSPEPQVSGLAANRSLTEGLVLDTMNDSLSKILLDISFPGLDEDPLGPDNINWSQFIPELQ
Experiment: two-hybrid; mammalian two-hybrid (Checkmate, Promega) in U2OS; bait pBIND (GAL4 DNA-binding domain)-FOXM1, prey pACT (VP16 activation domain)-CDC25A, reporter pG5-luc; firefly normalised to Renilla luciferase; 2 days
Details: partners not purified

B1: VP16-CDC25A (natural protein, UniProt P30304 1-524, looked up)
chain: MELGPEPPHRRRLLFACSPPPASQPVVKALFGASAAGGLSPVTNLTVTMDQLQGLGSDYEQPLEVKNNSNLQRMGSSESTDSGFCLDSPGPLDSKENLENPMRRIHSLPQKLLGCSPALKRSHSDSLDHDIFQLIDPDENKENEAFEFKKPVRPVSRGCLHSHGLQEGKDLFTQRQNSAPARMLSSNERDSSEPGNFIPLFTPQSPVTATLSDEDDGFVDLLDGENLKNEEETPSCMASLWTAPLVMRTTNLDNRCKLFDSPSLCSSSTRSVLKRPERSQEESPPGSTKRRKSMSGASPKESTNPEKAHETLHQSLSLASSPKGTIENILDNDPRDLIGDFSKGYLFHTVAGKHQDLKYISPEIMASVLNGKFANLIKEFVIIDCRYPYEYEGGHIKGAVNLHMEEEVEDFLLKKPIVPTDGKRVIVVFHCEFSSERGPRMCRYVRERDRLGNEYPKLHYPELYVLKGGYKEFFMKCQSYCEPPSYRPMHHEDFKEDLKKFRTKSRTWAGEKSKREMYSRLKKL
notes: CDC25A (cell division cycle 25A) dual phosphatase; plasmid bought from Origene; also called pACT-CDC25A; wild-type CDC25A; source: mammalian two-hybrid fusion, U2OS, transfected
With B1 the “fold above background (normalised luciferase activity)” value was greater than 60000 fold.
